Results: patent US10822723B2, “Fusion protein crystal comprising a moiety” (Agency for Science, Technology and Research, priority 2015, dated 2020)

Target: T1, PAK4cat (Homo sapiens, UniProt O96013)
T1 construct: PAK1 (1-545) and PAK4 (286-591), respectively; 6His (N); made in house; host or cells: Escherichia coli BL21-CodonPlus(DE3)
Test: In vitro kinase assay, phosphorylation of GST-Raf13 by PAK4cat
Format: biochemical
Settings: in vitro, FIG. 1d
Protocol: Purified PAK1 or PAK4 (50 nM in 25-50 μl) were incubated with 10 μM GST-Raf1S338 peptide in 10 μM ATP (2 μCi of γ32P ATP) of kinase buffer (25 mM Hepes, pH 7.3, 0.1% Triton-X100, 50 mM KCl, 10 mM MgCl2, 1 mM DTT) at 30° C. for 20 min. Samples were analysed by SDS-polyacrylamide gel electrophoresis, or adsorption of the GST substrate mix onto PVDF membranes, followed by extensive washing to remove free γ32P-ATP. The synthetic peptides of 95% purity, as determined by HPLC and MS analyses (GenScript), were soluble in aqueous PBS. Stock solutions (10 mM) were quantified via calculated extinction coefficients and absorbance measurements at 280 nm and stored at −80° C. The diluted peptides were incubated at the indicated concentrations with the kinase on ice (10 min) before addition of γ32P ATP and subsequent incubation at 30° C. The synthetic peptide array (Jerini Biotools) was phosphorylated in situ as described previously.

T1 sequence (O96013 286-591): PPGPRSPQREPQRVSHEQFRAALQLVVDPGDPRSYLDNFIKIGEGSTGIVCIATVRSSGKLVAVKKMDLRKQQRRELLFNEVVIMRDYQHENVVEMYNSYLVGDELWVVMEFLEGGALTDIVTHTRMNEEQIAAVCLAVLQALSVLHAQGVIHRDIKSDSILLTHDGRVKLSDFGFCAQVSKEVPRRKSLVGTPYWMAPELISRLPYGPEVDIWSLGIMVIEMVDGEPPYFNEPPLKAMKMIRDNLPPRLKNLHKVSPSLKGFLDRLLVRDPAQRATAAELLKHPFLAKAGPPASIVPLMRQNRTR

B1: Inka1: human Inka1, endogenous protein inhibitor of PAK4 (protein)
chain: MDMHSARLDSFLSQLRWELLCGRDTGSPSMPGPLQPTSQTGPDVQPSHQLRASGALEEDSVCCVEEEEEEEEEAVVTEDRDAALGGPREHALDWDSGFSEVSGSTWREEELPVSQRPAPSAQPLRRQCLSVSGLPMPSRAPVASVPPVHHPRPKSTPDACLEHWQGLEAEDWTAALLNRGRSRQPLVLGDNCFADLVHNWMELPETGSEGGDGGGHRARARPPQFLLGLSEQLRRRLARARRTAMAGKRLSCPPRPEPELPADVSRFAALMSCRSRQPIICNDVS
modifications: left off: small tags and cut ends
- Ki: ~30 nM
